Source: patent US6365356B1, “Receptors that regulate cell signaling relating to chemokines” (Cornell Research Foundation, Inc., priority 1999, dated 2002)

Tests used:
Assay type in all cases: cell-based
CXCR4 = molecular target: T1, CXCR4 (Homo sapiens, UniProt P61073); assay: Luciferase reporter gene assay (protein kinase C-responsive promoter), COS-1 cells expressing CXCR4 but not DARC; conditions: COS-1 cells expressing CXCR4 alone; luciferase gene controlled by protein kinase C-responsive promoter
T1 construct: expressed in transfected cells; host or cells: COS-1 cells, transient DEAE-dextran transfection with pcDNA3.1 encoding CXCR4
T1 sequence (P61073 whole entry): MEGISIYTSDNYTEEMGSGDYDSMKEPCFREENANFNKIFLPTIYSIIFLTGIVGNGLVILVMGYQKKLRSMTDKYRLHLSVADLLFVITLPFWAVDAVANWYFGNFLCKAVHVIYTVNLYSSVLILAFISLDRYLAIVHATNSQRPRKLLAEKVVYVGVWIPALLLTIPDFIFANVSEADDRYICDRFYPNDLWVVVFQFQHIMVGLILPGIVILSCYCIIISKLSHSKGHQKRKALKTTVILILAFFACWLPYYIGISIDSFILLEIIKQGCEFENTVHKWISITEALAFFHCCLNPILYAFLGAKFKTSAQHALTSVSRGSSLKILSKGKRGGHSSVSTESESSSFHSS
Protocol: (§1) A second group of COS-1 cells were made to express DARC, but not CXCR4. A third group of COS-1 cells were made to express CXCR4, but not DARC. Signaling due to stromal cell derived factor 1 (SDF-1) and GRO-α was measured in a reporter gene assay using a luciferase gene controlled by a protein kinase C-responsive promoter.
(§2) Cell Culture and Transfection. COS-1 cells are maintained in Dulbecco's modified eagle's medium with 5% fetal calf serum and are seeded 1 day prior to transfection at 750,000 cells/100 mm dish. Cells are transfected with pcDNA3.1 (Invitrogen) encoding DARC (5 μg DNA/ml) or with pcDNA3.1 encoding CXCR4 (5 μg DNA/ml), or both using the DEAE-dextran method and maintained in Dulbecco's modified Eagle's medium with 10% fetal calf serum for 1 day at which time cells are harvested and seeded into 12-well plates at 100,000 cells/well or 24-well plates at 50,000 cells/well in Dulbecco's modified Eagle's medium with 5% fetal calf serum. Other cell lines, such as HEK-293 or CHO cells, can be stably transfected with DARC or CXCR4, or both.
(§3) Reporter Gene Assays. […] Agonists or agonists plus antagonists are added for four hours and the reporter activity measured. […]

DARC = assay: Luciferase reporter gene assay (protein kinase C-responsive promoter), COS-1 cells expressing DARC but not CXCR4; conditions: COS-1 cells expressing DARC alone; luciferase gene controlled by protein kinase C-responsive promoter
Protocol: as §1, §2, §3

DARC and CXCR4 = molecular target: T2, DARC and CXCR4 (Homo sapiens, UniProt Q16570); assay: Luciferase reporter gene assay (protein kinase C-responsive promoter), COS-1 cells co-expressing DARC and CXCR4; conditions: single chemokine
T2 construct: expressed in transfected cells; host or cells: COS-1 cells co-transfected (DEAE-dextran) with pcDNA3.1 encoding DARC and pcDNA3.1 encoding CXCR4
T2 sequence (Q16570 1-336): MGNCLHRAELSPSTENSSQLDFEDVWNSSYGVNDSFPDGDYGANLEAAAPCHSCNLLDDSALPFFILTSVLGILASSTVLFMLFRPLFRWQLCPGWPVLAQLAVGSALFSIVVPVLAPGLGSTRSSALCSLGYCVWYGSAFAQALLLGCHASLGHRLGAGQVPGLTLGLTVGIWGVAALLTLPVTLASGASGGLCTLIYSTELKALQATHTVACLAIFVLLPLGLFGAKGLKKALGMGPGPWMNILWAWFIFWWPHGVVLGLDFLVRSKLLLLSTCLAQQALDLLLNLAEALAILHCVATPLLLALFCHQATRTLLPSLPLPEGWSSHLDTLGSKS
Protocol: as §1, §2, §3

| Substance | Signaling in reporter gene assay via CXCR4 (CXCR4) | Signaling in reporter gene assay via DARC (DARC) | Signaling (gene transcription) in reporter gene assay (DARC and CXCR4) |
| --- | --- | --- | --- |
| growth-related protein-α [GRO-α] | did not signal | did not signal | increase gene transcription |
| stromal cell derived factor 1 [SDF-1] | signals weakly | does not signal |  |
